We go through two molecules from US20140087995A1 (published 2014).

Numbered stars: 1 amine (or outer) side, 2 acyl side, 3 side chain; on linkers, the order of the positions; unused ones are H or OH. Bridge positions count the residues as written; N and C are the ends. Side chains are listed from the residue outwards. Ends that are not written are not given here. * marks the point of attachment. C20 diacid = O=C(O)CCCCCCCCCCCCCCCCCCC(=O)*; γGlu = O=C(O)[C@H](CCC(=O)[*:2])N[*:1]

For assay [1], the target named is T1, human calcitonin receptor (human, UniProt P30988 25-474).
T1 construct: whole, on cells; Assay used cell membranes, not intact cells; also called hCTR; hCT
T1 sequence (looked up): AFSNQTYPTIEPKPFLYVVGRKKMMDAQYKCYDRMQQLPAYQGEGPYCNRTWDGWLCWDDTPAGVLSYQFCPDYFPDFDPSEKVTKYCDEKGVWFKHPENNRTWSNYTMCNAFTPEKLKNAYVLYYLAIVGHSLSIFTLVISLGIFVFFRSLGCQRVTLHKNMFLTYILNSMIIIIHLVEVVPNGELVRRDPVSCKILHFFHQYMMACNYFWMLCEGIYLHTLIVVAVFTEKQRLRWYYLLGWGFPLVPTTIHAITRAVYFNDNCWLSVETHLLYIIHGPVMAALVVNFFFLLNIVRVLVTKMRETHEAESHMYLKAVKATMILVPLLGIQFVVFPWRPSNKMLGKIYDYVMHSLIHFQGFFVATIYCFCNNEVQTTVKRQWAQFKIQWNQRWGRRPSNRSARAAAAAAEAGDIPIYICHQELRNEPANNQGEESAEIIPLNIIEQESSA
Put plainly: ratio IC50 hCTR / IC50 hAmylin-R (reference: human amylin receptor), SPA competition assays. Put shortly: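 Membranes (35 ng/μL final) + SPA beads, 50 mM Hepes pH 7.4 buffer with 1 mM CaCl2, 5 mM MgCl₂, 0.1% OA, 0.02% Tween20; 120 min, 25° C, shaking; centrifuged, counted; IC₅₀ by one-site binding competition.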

The target in assay [2] is T1, human calcitonin receptor. Put plainly: SPA competition with 125I-calcitonin on membranes of BHK cells with human calcitonin receptor (Assay VII). In short, it runs like this:
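BHK hCTR membranes 35 ng/μL + SPA beads 0.05 mg/well; buffer 50 mM Hepes pH 7.4, 1 mM CaCl2, 5 mM MgCl₂, 0.1% OA, 0.02% Tween20. 120 min, 25° C., shaking. Scintillation count; IC50 by one-site binding competition.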

Assay [3] addresses T2, human amylin receptor (amylin 3(a) receptor: human calcitonin receptor with RAMP-3) (human, UniProt P30988 25-474; O60896 24-148).
T2 construct: whole, on cells; Assay used cell membranes of the Amylin 3(a)/CRE-luc BHK cells, not intact cells; also called hAmylin-R; hAmylinR
T2 sequence (looked up) 1: T1 sequence (looked up)
T2 sequence (looked up) 2: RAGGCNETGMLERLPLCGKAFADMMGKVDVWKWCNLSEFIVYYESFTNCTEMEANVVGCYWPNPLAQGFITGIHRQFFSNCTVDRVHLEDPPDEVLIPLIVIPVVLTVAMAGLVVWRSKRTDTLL
Nature of the assay: SPA competition with 125I-rat amylin on membranes of BHK cells with human calcitonin receptor and RAMP-3 (Assay V). Put shortly: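 SPA beads + BHK amylin 3(a)/CRE-luc membranes, 35 ng/μL final; buffer 50 mM Hepes pH 7.4, 1 mM CaCl2, 5 mM MgCl₂, 0.1% OA, 0.02% Tween20. 120 min, 25° C, shaken; scintillation count. IC₅₀ by one-site binding competition fit, taken as receptor affinity.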

B1: N^ε1-[(4S)-4-carboxy-4-[[(4S)-4-carboxy-4-(19-carboxynonadecanoylamino)butanoyl]amino]butanoyl]-[Asp14,Arg17,Pro21,Pro27,Pro34,Glu35]-h-amylin (peptide)
peptide: K([γGlu-γGlu-C20 diacid])CNTATCATQRLADFLRHSSPNFGAIPSSTNVGPETY-NH2
modifications: disulfide 2-7; N-terminus assumed
SMILES: CC[C@H](C)[C@H](NC(=O)[C@H](C)NC(=O)CNC(=O)[C@H](Cc1ccccc1)NC(=O)[C@H](CC(N)=O)NC(=O)[C@@H]1CCCN1C(=O)[C@H](CO)NC(=O)[C@H](CO)NC(=O)[C@H](Cc1c[nH]cn1)NC(=O)[C@H](CCCNC(=N)N)NC(=O)[C@H](CC(C)C)NC(=O)[C@H](Cc1ccccc1)NC(=O)[C@H](CC(=O)O)NC(=O)[C@H](C)NC(=O)[C@H](CC(C)C)NC(=O)[C@H](CCCNC(=N)N)NC(=O)[C@H](CCC(N)=O)NC(=O)[C@@H](NC(=O)[C@H](C)NC(=O)[C@@H]1CSSC[C@H](NC(=O)[C@@H](N)CCCCNC(=O)CC[C@H](NC(=O)CC[C@H](NC(=O)CCCCCCCCCCCCCCCCCCC(=O)O)C(=O)O)C(=O)O)C(=O)N[C@@H](CC(N)=O)C(=O)N[C@@H]([C@@H](C)O)C(=O)N[C@@H](C)C(=O)N[C@@H]([C@@H](C)O)C(=O)N1)[C@@H](C)O)C(=O)N1CCC[C@H]1C(=O)N[C@@H](CO)C(=O)N[C@@H](CO)C(=O)N[C@H](C(=O)N[C@@H](CC(N)=O)C(=O)N[C@H](C(=O)NCC(=O)N1CCC[C@H]1C(=O)N[C@@H](CCC(=O)O)C(=O)N[C@H](C(=O)N[C@@H](Cc1ccc(O)cc1)C(N)=O)[C@@H](C)O)C(C)C)[C@@H](C)O
B1: the “Ratio hCT/hAmylin binding” value in assay [1] was 49.8. Besides, the IC50 (usually the point on the concentration scale where inhibition reaches its midpoint) in assay [2] turned out to be 8.56 nM; in assay [3] it was 0.172 nM.

B2: N^ε1-[(4S)-4-carboxy-4-[[(4S)-4-carboxy-4-(19-carboxynonadecanoylamino)butanoyl]amino]butanoyl]-[Glu14,Arg17,Pro21,Pro27,Arg34]-h-amylin (peptide)
peptide: K([γGlu-γGlu-C20 diacid])CNTATCATQRLAEFLRHSSPNFGAIPSSTNVGRNTY-NH2
modifications: disulfide 2-7; N-terminus assumed
SMILES: CC[C@H](C)[C@H](NC(=O)[C@H](C)NC(=O)CNC(=O)[C@H](Cc1ccccc1)NC(=O)[C@H](CC(N)=O)NC(=O)[C@@H]1CCCN1C(=O)[C@H](CO)NC(=O)[C@H](CO)NC(=O)[C@H](Cc1c[nH]cn1)NC(=O)[C@H](CCCNC(=N)N)NC(=O)[C@H](CC(C)C)NC(=O)[C@H](Cc1ccccc1)NC(=O)[C@H](CCC(=O)O)NC(=O)[C@H](C)NC(=O)[C@H](CC(C)C)NC(=O)[C@H](CCCNC(=N)N)NC(=O)[C@H](CCC(N)=O)NC(=O)[C@@H](NC(=O)[C@H](C)NC(=O)[C@@H]1CSSC[C@H](NC(=O)[C@@H](N)CCCCNC(=O)CC[C@H](NC(=O)CC[C@H](NC(=O)CCCCCCCCCCCCCCCCCCC(=O)O)C(=O)O)C(=O)O)C(=O)N[C@@H](CC(N)=O)C(=O)N[C@@H]([C@@H](C)O)C(=O)N[C@@H](C)C(=O)N[C@@H]([C@@H](C)O)C(=O)N1)[C@@H](C)O)C(=O)N1CCC[C@H]1C(=O)N[C@@H](CO)C(=O)N[C@@H](CO)C(=O)N[C@H](C(=O)N[C@@H](CC(N)=O)C(=O)N[C@H](C(=O)NCC(=O)N[C@@H](CCCNC(=N)N)C(=O)N[C@@H](CC(N)=O)C(=O)N[C@H](C(=O)N[C@@H](Cc1ccc(O)cc1)C(N)=O)[C@@H](C)O)C(C)C)[C@@H](C)O
notes: also called compound 88
Take B2: the “Ratio hCT/hAmylin binding” value in assay [1] was 46.5. The values for the IC50 in assay [2] and in assay [3] were 34.9 nM and 0.75 nM, respectively.
